Source: publication PMC5756113 (Peptides, 2017)

Experiments:
[1] = mouse, in vivo
[2] = in vivo, cited from earlier work
[3] = mouse, in vivo; remark: listed apart in the source

Substance | Increase in the rate of transport at 72 hours post-CCI compared to the 2 hour time point [1] | Rate of PACAP38 transport across the mouse BBB [2] [µL/g/min] | Half-time disappearance of PACAP38 from the blood ([2]; mouse) [min] | Average rate of I-PACAP38 transport into whole brain in the No-Sham Controls [1] [µL/g/min] | Average rate of transport into the whole brain for all groups [1] [µL/g/min] | Increase in the Vi, CCI versus Sham [1] [fold] | Transport rate in cerebellum compared to the cortices and whole brain [1] [fold] | %Inj/g in cerebellum (average) [3] [%Inj/g] | Amount of I-PACAP38 to enter the brain (value calculated here) [3] [%Inj/g] | I-PACAP38 %Inj/g in the ipsilateral cortex, CCI compared to Sham [3] | Amount of I-PACAP38 to enter the brain ([2]; mouse) [%Inj/g] | Vi previously reported ([2]; mouse) [µL/g]
Pituitary adenylate cyclase-activating polypeptide 38 [PACAP38, reference compound] | 2–3 fold | 2.86 ± 0.57 | 0.82 |  |  |  |  |  |  |  |  | 
I-PACAP38: 38-amino acid form of PACAP (Bachem) radioactively labeled with 125I by the lactoperoxidase method |  | 2.86 |  | 2.35 | 2.98 | 1.4 | ~2 | 0.37 | 0.15 | nearly a doubling | 0.119 | 18.5
